Entries after “also recorded” stand apart in the source; their conditions may differ.
Key:
SKOV-3 cells = assay: MTS cell viability assay, parental/wild-type SKOV-3 cells; assay type: cell-based, Human; settings: for effect of recombinant HE4 on cisplatin efficacy in SKOV-3 cells: combination or pre-treatment with HE4 (4 ng/mL in FIG. 10B) plus cisplatin
Protocol: Cell growth and viability of cell lines (complete medium, 24 h incubation) was determined by the CellTiter 96® AQueous One Solution Assay (Promega Corp, Madison, Wis.) following the manufacturer's recommendations with modifications (Lange T S et al., 2008 PLOS One, 3(5):e2303). Experiments are expressed as the mean of triplicate determinations (X±SD) of a representative experiment in OD (cell growth) or % of absorbance by drug-treated versus untreated cells [=100%] (cell viability). Cisplatin (CDDP), paclitaxel, doxorubicin and camptothecin (CPT) were purchased from (Sigma Aldrich, St. Louis, Mo.).
To analyze the potential biological relevance of elevated HE4 production for ovarian cancer cells the efficacy of commonly used anticancer drugs was examined in a viability assay (FIG. 5). SKOV-3 clones or parental cells were treated with cisplatin, paclitaxel, doxorubicin, or camptothecin for 24 h in various concentrations as indicated and the cytotoxicity evaluated.

CaOV-3 = assay: Cell viability, exogenous recombinant HE4, CaOV-3; assay type: cell-based, Human

B1: recombinant HE4: exogenous recombinant human epididymal secretory protein E4 (protein)
chain: EKTGVCPELQADQNCTQECVSDSECADNLKCCSAGCATFCSLPNDKEGSCPQVNINFPQLGLCRDQCQVDSQCPGQMKCCRNGCGKVSCVTPNF
- effect of recombinant HE4 on cisplatin efficacy in SKOV-3 cells (SKOV-3 cells): enhanced the efficacy of cisplatin; also recorded: synergized or enhanced suppression of cell-viability
- effect of recombinant HE4 on cisplatin efficacy in SKOV-3 cells (SKOV-3 cells; listed as HE4): enhanced the efficacy of cisplatin
- effect on viability of SKOV-3 cells (SKOV-3 cells; exogenous recombinant HE4): suppressed the viability of SKOV-3 cells
- IC50 (SKOV-3 cells; proliferating ovarian cancer cells (SKOV-3), read-out: IC50, reduction of cell viability): 1 to 8 µM
- effect on viability of CaOV-3 (CaOV-3): suppressed the viability

— patent US9980982B2, “HE4 based therapy for malignant disease” (Women & Infants Hospital of Rhode Island, priority 2011, dated 2018)
